According to paper PMC12461897 (mAbs, 2025):
Residue numbers refer to the chain shown, from its start.

Target: C18-V peptide presented by HLA-A*02:01 on peptide-pulsed T2 cells (Homo sapiens HLA-A*02:01 and B2M (T2 …))
Assay: flow cytometry on cells

B1: MUR35 Fab (anti-C18-MHC TCR-mimic antibody clone MUR35) (Fab, V domains shown)
VH: EVQLQQSGPELVKPGASVKISCKASGYTFTDHFMNWVRQSHGKSLEWIGDINPNNGGTSYNQKFKGKATLTVDKSSSTAFMEVRSLTSDDSAVYYCARRGYYGSFDYWGQGTTLTVSS
VL: EIVMTQSPATLSLSPGERATLSCRASQGVSSSYFSWYQQTPGQAPRLLISGASTRATGIPARFSGSGSGTDFTLTISSLQPEDFAVYYCQQDYNLPYTFGQGTKLEIK
binding result: binds

B2: MUR14 Fab (anti-C18-MHC antibody clone MUR14) (Fab, V domains shown)
VH: EVQLQQSGPELVKPGASVKISCKASGYTFTDYFMNWVKQSHGKSLEWIGDINPNNGGTSYNQKFKGKATLTVDKSSSTAYMELRSLTSEDSAVYYCARGLYDGYYVGFAYWGQGTLVTVSA
VL: B1 VL with G28S, F34L, T40K, S50Y, I59L, Q90H
binding result: binds
